These results are taken from publication PMC5453957, “Bartnicki Filip 1”.

One data set concerns the target Tat49-57-PCNA (human, UniProt P12004 =MRKKRRQRRRGGGGGGHPW+1-261, internal_change). The data set can be described thus: pull-down; AS1 buffer; ITC: 50 mM phosphate pH 7.6, 207 mM NaCl, 25 C; pull-down: AS1 buffer (composition not given), 4 C, or ARGI buffer (50 mM Tris-HCl, 300 mM NaCl, 5 mM EDTA, 0.01% Tween 20, pH 7.5). Particulars: protein: recombinant; tags: N-terminal Tat49-57; chain copies: 3; label: 5'-biotin (pull-down).

The next data set has as its target R6-PCNA (human, UniProt P12004 =RRRRRR+1-261, internal_change). Described as above. The conditions noted are these: protein: recombinant; tags: N-terminal R6; chain copies: 3; label: 5'-biotin (pull-down).
Data set [1] deals with T1, R6-GST (synthetic construct, UniProt P08515 =RRRRRR+1-218, internal_change). Described as above. Particulars: protein: recombinant; tags: N-terminal R6 (CPP tag under study); chain copies: 2; label: 5'-biotin (pull-down).
In data set [2] the target is T1, R6-GST. The data set can be described thus: ITC; 25 C; n 2.61; Table 1 dG -35.8 kJ/mol would fit about 532 nM (R6/R8 possibly swapped); ITC: 50 mM phosphate pH 7.6, 207 mM NaCl, 25 C; pull-down: AS1 buffer (composition not given), 4 C, or ARGI buffer (50 mM Tris-HCl, 300 mM NaCl, 5 mM EDTA, 0.01% Tween 20, pH 7.5). Particulars: protein: recombinant; tags: N-terminal R6 (CPP tag under study); chain copies: 2; label: 5'-biotin (pull-down); four mfold structures predicted.

Sequence of Tat49-57-PCNA (P12004 other isoform, or with tags, fused parts or gaps): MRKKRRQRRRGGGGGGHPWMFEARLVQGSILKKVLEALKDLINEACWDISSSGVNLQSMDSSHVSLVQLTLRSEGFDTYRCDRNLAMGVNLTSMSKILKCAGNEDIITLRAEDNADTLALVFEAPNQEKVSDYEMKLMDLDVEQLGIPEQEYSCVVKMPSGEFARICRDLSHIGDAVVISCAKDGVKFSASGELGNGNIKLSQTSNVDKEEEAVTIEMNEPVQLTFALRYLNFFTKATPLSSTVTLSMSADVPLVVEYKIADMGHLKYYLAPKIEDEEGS
Sequence of R6-PCNA (P12004 other isoform, or with tags, fused parts or gaps): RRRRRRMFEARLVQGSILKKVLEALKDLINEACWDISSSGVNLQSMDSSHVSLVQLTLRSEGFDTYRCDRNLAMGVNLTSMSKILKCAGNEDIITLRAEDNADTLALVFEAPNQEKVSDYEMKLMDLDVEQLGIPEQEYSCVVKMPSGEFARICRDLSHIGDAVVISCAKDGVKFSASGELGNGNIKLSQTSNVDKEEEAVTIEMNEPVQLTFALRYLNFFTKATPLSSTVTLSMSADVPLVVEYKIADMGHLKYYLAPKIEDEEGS

B1: 24-10 aptamer full length (ssDNA)
DNA: CATGCTTCCCCAGGGAGATGGACGGCACGTCTTTGTAATTGGTTCTGAGTTCCGTTGTGGGAGGAACATGCGTCGCAAAC
With B1, the binding result with Tat49-57-PCNA, in the data set with R6-PCNA and with R6-GST [1] was “binds” throughout.

B2: reference aptamer (ssDNA)
DNA: CATGCTTCCCCAGGGAGATGACTGACTGACTGACTGACTGACTGACTGACTGACTGACTGGAGGAACATGCGTCGCAAAC
For the molecule B2, the binding result with Tat49-57-PCNA, with R6-PCNA and with R6-GST [1] was “no binding” throughout.

Take CTTTGTAATTGGTTCTGAGTTCCGTTGTGGGAGGAACATG (ssDNA) [AR aptamer (24-10 nt 31-70; 5'/-30 and 3'/-10)]: in the data set with R6-GST [2], the Kd (as a rule, the concentration at which binding is half-saturated) was 0.943 ± 0.037 µM.
